Measurements: patent publication US11655308B2, “HM-3 fusion protein and application thereof” (TASLY BIOPHARMACEUTICALS CO., LTD., priority 2017, dated 2023)

B1: IgG2-Fc-(GGGGS)3-HM-3 (protein)
chain: VECPPCPAPPVAGPSVFLFPPKPKDTLMISRTPEVTCVVVDVSHEDPEVQFNWYVDGVEVHNAKTKPREEQFNSTFRVVSVLTVVHQDWLNGKEYKCKVSNKGLPAPIEKTISKTKGQPREPQVYTLPPSREEMTKNQVSLTCLVKGFYPSDISVEWESNGQPENNYKTTPPMLDSDGSFFLYSKLTVDKSRWQQGNVFSCSVMHEALHNHYTQKSLSLSPGKGGGGSGGGGSGGGGSIVRRADRAAVPGGGGRGD

Columns and labels:
[1] = system: transgenic blood vessel fluorescent zebrafish; assay: In vivo anti-angiogenesis in zebrafish (SIVs area); parameters: area of SIVs: unit not given here; conditions: 500 ng/tail, 24 h
[2] = system: mice splenic lymphocyte proliferation stimulated by ConA; assay type: cell-based
Description: Experimental method: mice orbit was by bloodletting to death, and immediately immersed in 75% ethanol for 5-10 min, and then the spleen was removed on a clean bench and placed in PBS. The spleen was placed on a sterile cell strainer (200 mesh) and ground with a syringe nozzle; during grinding process, PBS was added continuously; the slurry was collected and centrifuged (1000 rpm for 5 min), then cells were washed 3 times with Tris-ammonium chloride solution, and washed again with a medium, and then re-suspended in the medium. Finally, trypan blue living cell staining was performed on the cells, and the survival rate was more than 95%. The concentration of viable cells was adjusted to 2×10^6/mL. […] was added to each well of a 96-well plate, meanwhile, ConA (concanavalin to simulate splenocyte proliferation) and drugs were added to each well. Six duplicates were set in each group.
The 96-well plate was incubated for 48 h in a 5% CO2 incubator at 37° C. 5 mg/mL of MTT was added to the 96-well plate, 20 μL for each well, and then it was incubated continuously for 4 h in the incubator. The culture medium in the 96-well plate was discarded and 100 μL DMSO was added to each well and mixed gently. Absorbance was measured by a microplate reader at the wavelength of 570 nm and reference wavelength of 630 nm.
Proliferation inhibition rate (PI) was calculated according to formula:
[formula] wherein, Atest is the absorbance of dosing group, and Acontrol is the absorbance of negative control. Test results were expressed as mean±SD, and statistical T test was performed. *P<0.05 indicates significant difference, **P<0.01 indicates extremely significant difference. Based upon the results, the efficacy of the fusion protein against rheumatoid arthritis was screened.
In the P4 control group, TSL-4 fusion protein served as a control agent.

[3] = system: human macrophage U937; assay: TNF-α production by LPS-induced human macrophage U937 (ELISA); assay type: cell-based; conditions: 9 μM; LPS 1 μg/mL, 48 h; negative group 77.6±19.6
Description: Experimental method: Human macrophage U937 was cultured in RPMI-1640 medium containing 10% fetal bovine serum and double antibodies in a constant temperature incubator at 37° C. under the condition of 5% CO2, and the medium was replaced every 2 days. U937 cells in the logarithmic phase were collected, resuspended and adjusted to the concentration of 5×10^5/mL. 100 μL of cells was added to each well of a 96-well plate overnight and induced with LPS (1 μg/mL) in the following day, where n=3. At the same time, the cells were treated with agents, and respectively divided into a positive control group adalimumab, an HM-3 polypeptide group, an mPEG-SC-HM-3 polypeptide group, an HM-3 fusion protein (TSL-1, TSL-2, TSL-3, TSL-4) group, and the specific dosing scheme was shown in Table 5.
48 h after the agents worked, culture medium was collected and centrifuged, and supernatant was taken to measure the content of TNF-α therein by ELISA. Test results were expressed as mean±SD, and statistical T test was performed. *P<0.05 indicates significant difference, **P<0.01 indicates extremely significant difference. Based upon the results, the efficacy of the HM-3 fusion protein against rheumatoid arthritis was screened.

[4] = system: transgenic blood vessel fluorescent zebrafish; assay: In vivo anti-angiogenesis in zebrafish (SIVs area); parameters: area of SIVs: unit not given here; conditions: for inhibition rate of angiogenesis / area of SIVs: 24 h; for area of SIVs: normal control group 53193
Description: Experimental method: transgenic blood vessel fluorescent zebrafish was randomly selected and put into a six-well plate with 30 fish per well, and intravenously injected HM-3 polypeptide, TSL-1 fusion protein, TSL-2 fusion protein, TSL-3 fusion protein and TSL-4 fusion protein respectively in accordance with the dosage of 20 ng/tail and 66 ng/tail; the dosage was […] in Avastin positive control and the injection volume was 20 nL/tail; the zebrafish injected 20 nL/tail of buffer solution served as a solvent control group, and the zebrafish without any treatment served as a normal control group. 10 pieces of zebrafish were randomly selected from each group after processed for 24 h to observe the intestinal vessels of the transgenic zebrafish by a fluorescence microscope, as well as to take and maintain images. Image analysis was performed by Nikon MS-Elements D 3.10 to calculate the area (S) of SIVs (subintestinal vessel, SIV). The calculation formula of angiogenesis inhibition rate was as follows: Angiogenesis inhibition rate (%)=(1−S(Test sample group)/S(Normal control group))×100%
Statistical analysis was performed by variance analysis and Dunnett's T-test and the results were expressed as Mean±SD, where p<0.05 indicates a significant difference.

Row | Molecule | inhibition rate of angiogenesis [1] [%] | area of SIVs ([1]; normal control group 53193) | optimal (best) inhibition rate of splenic lymphocyte proliferation ([2]; ConA 5 μg/mL, 48 h, MTT, best of the tested concentrations) [%] | inhibition rate compared with the positive control group ([2]; positive group Dexamethasone 50 μmol/L) | TNF-α content in cell supernatant [3] [pg/mL] | inhibiting effect on angiogenesis ([4]; 20 ng/tail) | inhibition rate of angiogenesis ([4]; 20 ng/tail iv) [%] | area of SIVs ([4]; 20 ng/tail iv) | inhibition rate of angiogenesis ([4]; 66 ng/tail iv) [%] | area of SIVs ([4]; 66 ng/tail iv)
1 | Avastin: positive control in the zebrafish angiogenesis test | 29 | 37853 | – | – | – | – | – | – | – | –
2 | B1 | – | – | 61.4 | higher than that of the positive control group | 38.6 ± 12.9 | significant inhibitory effect | 23 | 40705 | 27 | 38660
